Conditions in all cases: both partners purified
The target in test [1] is T1, HIV-1 integrase with native N-terminal phenylalanine (IN 1F), full-length, wild type (HIV-1 (NL4-3)).
T1 chain: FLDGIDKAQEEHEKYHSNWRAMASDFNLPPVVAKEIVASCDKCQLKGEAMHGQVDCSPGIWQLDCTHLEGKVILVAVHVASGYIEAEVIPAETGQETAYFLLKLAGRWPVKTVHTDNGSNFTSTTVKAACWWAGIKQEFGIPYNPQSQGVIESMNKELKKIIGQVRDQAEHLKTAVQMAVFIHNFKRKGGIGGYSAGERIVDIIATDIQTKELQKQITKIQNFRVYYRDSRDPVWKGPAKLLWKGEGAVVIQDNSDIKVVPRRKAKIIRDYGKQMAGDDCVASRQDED
Put plainly: AUC; sedimentation equilibrium, 4 °C, same data and buffer as the monomer-dimer fit; attempted fit of a dimer-tetramer equilibrium: tetramer to dimers.

Test [2] has as its target T1, HIV-1 integrase with native N-terminal …. Put plainly: AUC; sedimentation equilibrium, 4 °C, 20 mM HEPES-NaOH pH 7.5, 1 M NaCl, 7 mM CHAPS, 10 µM ZnOAc2, 10 µM β-mercaptoethanol; global fit at 16, 20, 24 krpm (SEDPHAT); dimer to monomers.
For test [3] the target is unchanged. Put plainly: SEC-MALS; Superdex 200 10/300, 25 °C, 20 mM HEPES-NaOH pH 7.5, 500 mM-1 M NaCl, 7 mM CHAPS, 10 µM ZnOAc2, 10 µM β-mercaptoethanol; eluted concentrations ~8-10 µM (IN 1F, IN MF); self-association. A general note: SEC sorts molecules by how far they enter the pores of the column.

B1: HIV-1 integrase with native N-terminal phenylalanine (IN 1F), full-length, wild type (enzyme)
chain: T1 chain
modifications: Zn2+ bound in the NTD (H12, H16, C40, C43); native N-terminal Phe1; monomer-dimer equilibrium. Limits: the paper gives F1 as the start and full length; the integrase chain follows RT (ends at 1147) …
Consider B1, for which the results for the Kd in test [1] and in test [2] were above 1000 µM and 59.8 µM, respectively. Besides, the stoichiometry N – broadly, a count of units in the complex or per binding partner – in test [3] turned out to be 2.

Source of the values: article PMC7457537, “Influence of the amino-terminal sequence on the structure and function of HIV integrase” (Retrovirology, 2020).
